Results taken from article PMC10579229 (Nature Communications, 2023).

Assays:
[1] = molecular target: capsid protein VP1 of GII.4 Den Haag HuNoV (human norovirus GII.4 (Den Haag))
[2] = molecular target: capsid protein VP1 of GII.4 New Orleans HuNoV (human norovirus GII.4 (New Orleans))
[3] = molecular target: the molecule itself; assay: crystal structure; P-domain and M4 mixed 1:1.5, complex peak from S200 gel filtration; crystals at 20 °C in 2% Tacsimate pH 4.0, 0.1 M sodium acetate pH 4.6, 16% PEG 3350; 2.87 Å

B1: nanobody M4 (VHH)
VHH: QVKLQQSGGGLVQPGGSLRLSCAASESTISINTLGWYRQAPGNQRELVATITTGGTTNYADSVKGRFTISRDNAKNTVYLQMNNLEPGDTAVYYCNLKRRDLQSRFGGYWGQGTQVTVSS
IC50 of neutralisation of GII.4 Den Haag HuNoV (stool filtrate, 100 TCID50) in J4 FUT2 human intestinal enteroid monolayers; viral genome equivalents by RT-qPCR at 24 hpi [1]: 379 ng/mL | IC50 of neutralisation of GII.4 New Orleans HuNoV (stool filtrate, 100 TCID50) in J4 FUT2 human intestinal enteroid monolayers; viral genome equivalents by RT-qPCR at 24 hpi [2]: 56 ng/mL

B2: GII.4 Sydney 2012 P-domain (protruding domain of the capsid protein VP1) (domain or fragment)
chain: ESRTKPFSVPVLTVEEMTNSRFPIPLEKLFTGPSSAFVVQPQNGRCTTDGVLLGTTQLSPVNICTFRGDVTHITGSRNYTMNLASQNWNDYDPTEEIPAPLGTPDFVGKIQGVLTQTTRTDGSTRGHKATVYTGSADFAPKLGRVQFETDTDRDFEANQNTKFTPVGVIQDGGTTHRNEPQQWVLPSYSGRNTHNVHLAPAVAPTFPGEQLLFFRSTMPGCSGYPNMDLDCLLPQEWVQYFYQEAAPAQSDVALLRFVNPDTGRVLFECKLHKSGYVTVAHTGQHDLVIPPNGYFRFDSWVNQFYTLAPMG
modifications: biotin (EZ-Link NHC-LC-LC-biotin), in the BLI only
notes: also called GII.4 P-domain; GII.4 Sydney P-domain; source: E. coli BL21(DE3), purified (His-Trap, TEV cleavage, His-Trap, MBPTrap, SEC); not shown: His6, N-terminal, cleaved; MBP, N-terminal, cleaved
stoichiometry N [3]: 2
